From article PMC2871789 come the findings set out here.

Holding throughout (experiment): EMSA
A general note: A gel shift assay detects complexes by their altered migration in electrophoresis.

The target of series [1] is T1, RelB;RelE (Mycobacterium tuberculosis H37Rv;Mycobacterium tuberculosis H37Rv) (UniProt O50462+O50461).
T1 sequence 1: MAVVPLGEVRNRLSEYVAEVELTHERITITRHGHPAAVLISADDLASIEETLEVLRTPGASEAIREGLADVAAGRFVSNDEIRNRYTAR
T1 sequence 2: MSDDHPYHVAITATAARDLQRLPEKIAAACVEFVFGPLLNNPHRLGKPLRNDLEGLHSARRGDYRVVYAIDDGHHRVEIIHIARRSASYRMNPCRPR

The target in series [2] is T2, RelB (Mycobacterium tuberculosis H37Rv) (UniProt O50462).
T2 sequence: T1 sequence 1

In series [3] the target is T3, RelB;RelG (Mycobacterium tuberculosis H37Rv;Mycobacterium tuberculosis H37Rv) (UniProt O50462+O33348).
T3 sequence 1: T1 sequence 1
T3 sequence 2: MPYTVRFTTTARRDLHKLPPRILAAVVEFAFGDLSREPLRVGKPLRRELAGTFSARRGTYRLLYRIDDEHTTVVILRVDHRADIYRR

The target of series [4] is RelB;RelK (Mycobacterium tuberculosis H37Rv;Mycobacterium tuberculosis H37Rv) (UniProt O50462+P9WF09).
Chain of RelB;RelK (Mycobacterium tuberculosis H37Rv;Mycobacterium tuberculosis H37Rv) (P9WF09 whole entry, one chain of several): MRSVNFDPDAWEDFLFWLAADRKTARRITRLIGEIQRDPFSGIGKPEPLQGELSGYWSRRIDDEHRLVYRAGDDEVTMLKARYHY
Series [5] deals with T4, RelE (Mycobacterium tuberculosis H37Rv) (UniProt O50461).
T4 sequence: T1 sequence 2

Series [6] addresses RelK (Mycobacterium tuberculosis H37Rv) (UniProt P9WF09).
Series [7] concerns the target T5, RelF;RelE (Mycobacterium tuberculosis H37Rv;Mycobacterium tuberculosis H37Rv) (UniProt O33347+O50461).
T5 sequence 1: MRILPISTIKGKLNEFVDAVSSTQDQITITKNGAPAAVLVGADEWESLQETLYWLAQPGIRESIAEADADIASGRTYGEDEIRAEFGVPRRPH
T5 sequence 2: T1 sequence 2

In series [8] the target is T6, RelF;RelG (Mycobacterium tuberculosis H37Rv;Mycobacterium tuberculosis H37Rv) (UniProt O33347+O33348).
T6 sequence 1: T5 sequence 1
T6 sequence 2: T3 sequence 2

Chain of RelK (Mycobacterium tuberculosis H37Rv) (P9WF09 whole entry): as the sequence (P9WF09 whole entry, one chain of several) above

Turning to “TCCGAACGCCTCGTCGCTGTTTGATGTCTCCTCGAGCGTTCGGCTGAGCGAACTCAGCCGAACGCCTCGTCGAGGATCTCCTGCTGTTCGACGGCGTGCACCTTCGACGAGCCTGACGACGGGGCTGACATCGCCCGGCGCGAGATTCGCTTGATCCCGGCCAACTTGTCATCTAGACGGT (double strand) [1247p5]”, in series [1], the binding result is recorded as “no binding”.

As to “GGCGTTCGGCTCGGTAAGCCGATGCTCGGCGTACAGGGTTTAGCCATACTTTTAGCTACAATCGCGGTTATGGCTGTTGTCCCACTGGGTATA (double strand) [1247p3]”, the binding result in series [1] was “binds”.

Regarding “ACCGTCTAGATGACAAGTTGGCCGGGATCAAGCGAATCTCGCGCCGGGCGATGTCAGCCCCGTCGTCAGGCTCGTCGAAGGTGCACGCCGTCGAACAGCAGGAGATCCTCGACGAGGCGTTCGGCTGAGTTCGCTCAGCCGAACGCTCGAGGAGACATCAAACAGCGACGAGGCGTTCGGCTCGGTAAGCCGATGCTCGGCGTACAGGGTTTAGCCATACTTTTAGCTACAATCGCGGTTATGGCTGTTGTCCCACTGGGTATA (double strand) [1247p]”, the binding entry is given as “no binding” in series [2]; “binds” in series [1]; “binds” in series [3]; “binds” in series [4]; “no binding” in series [5]; “no binding” in series [6].

With “ATCTTCTAGAACACACCGAGACCGAACCGTTACGCCGAGACTAGGTCGCGAATGGAACACCACCGCGAAAATCGTGGCCAGAAATCGCAACCACGTTACGCTCGCGACCGCTCAATCGAGCAAGGCGCCGACCGCAAGCACCAGCAAACCTGAGACGCCGCGCACAAAGTGCGAAACCACTGGAAGGTGAGCCCTAATTTAGGGCTGAGCAGGACCTGTATAACGGCCTAGTATGGCGGTATGCGGATACTGCCGATTTCTATA (double strand) [2865p]”, the binding entry in series [7] and in series [8] was “binds” throughout.
